From article PMC4747905

Key:
[1] = biological target: BRCA1 BRCT domains (UniProt P38398); experiment: native mass spectrometry, 15 µM; details: reference: Ab1p (pS406 only); sites S404
[2] = biological target: BRCA1 BRCT domains (UniProt P38398); experiment: size exclusion chromatography, 1 mg/ml; details: sites S406
[3] = biological target: BRCA1 BRCT domains (UniProt P38398); experiment: small angle X-ray scattering; details: reference: Ab1p (pS406 only); sites S404
[4] = biological target: BRCA1 BRCT domains (UniProt P38398); experiment: size exclusion chromatography, 1:1 versus 2:2 complex; details: reference: Ab1p (pS406 only); sites S404
[5] = biological target: BRCT-Ab2p complex (UniProt P38398); experiment: native MS; peak fractions from gel filtration, 15 μM protein, 300 mM ammonium acetate pH 7.6, nano-electrospray

**Q.** Which results are given for “Abraxas 399-409 (from UniProt Q6UWZ7) Ab2p (pS404 pS406)”?
**A.** binding against the reference [1]: stronger; binding against the reference ([2]; reference: pS404-only peptide): gained; binding against the reference [3]: stronger; binding against the reference [4]: stronger

**Q.** Which “binding against the reference” value ([2]; reference: unphosphorylated peptide) does the source give for “Abraxas 399-409 (from UniProt Q6UWZ7) pS406 peptide (Ab1p)” here?
**A.** gained

**Q.** For “BRCT-Ab2p complex (from UniProt P38398 1646-1859)”, which stoichiometry N [5] is on record?
**A.** 2
